# In the Immune Epitope Database (IEDB):
# Assays:
# HLA-A*02:01 [1] = test: IEDB peptide-MHC binding, purified MHC/competitive/radioactivity; filed as Kd, often an IC50 or EC50 that approximates it; ≥ and ≤ were set here for values at or beyond the usual limits of such assays
# HLA-A*02:01 [2] = test: IEDB peptide-MHC binding, purified MHC/competitive/fluorescence; filed as Kd, often an IC50 or EC50 that approximates it; ≥ and ≤ were set here for values at or beyond the usual limits of such assays
# HLA-B*07:02 [3] = test: IEDB peptide-MHC binding, purified MHC/competitive/radioactivity; filed as Kd, often an IC50 or EC50 that approximates it; ≥ and ≤ were set here for values at or beyond the usual limits of such assays
# HLA-B*35:01 = test: as above
# HLA-B*51:01 = test: as above
# HLA-B*53:01 = test: as above
# HLA-B*54:01 = test: as above
# HLA-B*48:01 = test: IEDB peptide-MHC binding, purified MHC/direct/fluorescence; filed as Kd, often an IC50 or EC50 that approximates it; ≥ and ≤ were set here for values at or beyond the usual limits of such assays
# HLA-A*01:01 = test: as above; conditions: source organism: Giardia lamblia ATCC 50803
# HLA-A*02:01 [4] = test: as above; conditions: source organism: Giardia lamblia ATCC 50803
# HLA-A*03:01 = test: as above; conditions: source organism: Giardia lamblia ATCC 50803
# HLA-A*11:01 = test: as above; conditions: source organism: Giardia lamblia ATCC 50803
# HLA-A*26:01 = test: as above; conditions: source organism: Giardia lamblia ATCC 50803
# HLA-A*31:01 = test: as above; conditions: source organism: Giardia lamblia ATCC 50803
# HLA-A*69:01 = test: as above; conditions: source organism: Giardia lamblia ATCC 50803
# HLA-B*07:02 [5] = test: as above; conditions: source organism: Giardia lamblia ATCC 50803
# HLA-B*08:01 = test: as above; conditions: source organism: Giardia lamblia ATCC 50803
# HLA-B*15:01 = test: as above; conditions: source organism: Giardia lamblia ATCC 50803
# HLA-B*27:05 = test: as above; conditions: source organism: Giardia lamblia ATCC 50803
# HLA-B*40:01 = test: as above; conditions: source organism: Giardia lamblia ATCC 50803
# HLA-B*44:02 = test: as above; conditions: source organism: Giardia lamblia ATCC 50803
# HLA-B*58:01 = test: as above; conditions: source organism: Giardia lamblia ATCC 50803
# [6] = source organism: Lassa virus Josiah
# [7] = source organism: Vaccinia virus WR
# [8] = source organism: Lymphocytic choriomeningitis virus (strain WE)
# [9] = source organism: Mammarenavirus choriomeningitidis
# [10] = source organism: Dengue virus 2 Jamaica/1409/1983
# [11] = source organism: Mammarenavirus lassaense
sequence,measurement,setting,value
AACRAAGL,Kd,HLA-A*02:01 [1]; source organism: Hepatitis C virus (isolate 1),≥ 50000 nM
ALFYKDGKL,Kd,HLA-A*02:01 [2]; source organism: Variola major virus,533 nM
ALMEWLKTRPI,Kd,HLA-A*02:01 [2]; source organism: Influenza A virus (A/swine/Hannover/1/1981(H1N1)),16.9 nM
ATQPGLTSAV,Kd,HLA-A*02:01 [1]; [6],≥ 25000 nM
DLFATQPGL,Kd,HLA-A*02:01 [1]; [6],12500 nM
DLKPDNILL,Kd,HLA-A*02:01 [2]; source organism: Plasmodium yoelii yoelii,154 nM
ELNAELSDKL,Kd,HLA-A*02:01 [2]; [7],≥ 20000 nM
ELTLTNTSI,Kd,HLA-A*02:01 [1]; [6],12500 nM
EPVESCPLM,Kd,HLA-B*07:02 [3]; [8],5100 nM
same,Kd,HLA-B*35:01; [8],26.7 nM
same,Kd,HLA-B*51:01; [8],1920 nM
same,Kd,HLA-B*53:01; [8],177 nM
same,Kd,HLA-B*54:01; [8],≥ 78100 nM
FATCGLFAL,Kd,HLA-B*07:02 [3]; [9],8620 nM
same,Kd,HLA-B*35:01; [9],736 nM
same,Kd,HLA-B*51:01; [9],≥ 27000 nM
same,Kd,HLA-B*53:01; [9],8690 nM
same,Kd,HLA-B*54:01; [9],6300 nM
FRKGSSIGK,Kd,HLA-B*48:01; source organism: dengue virus type 1,≥ 20000 nM
HPLSINVSGV,Kd,HLA-B*07:02 [3]; [7],3840 nM
same,Kd,HLA-B*35:01; [7],≥ 54200 nM
same,Kd,HLA-B*51:01; [7],≥ 29600 nM
same,Kd,HLA-B*53:01; [7],18800 nM
same,Kd,HLA-B*54:01; [7],120 nM
IPFDDIVRTM,Kd,HLA-B*07:02 [3]; [7],2940 nM
same,Kd,HLA-B*35:01; [7],192 nM
same,Kd,HLA-B*51:01; [7],8690 nM
same,Kd,HLA-B*53:01; [7],1020 nM
same,Kd,HLA-B*54:01; [7],4250 nM
IPVDLVKSSF,Kd,HLA-B*07:02 [3]; [7],20.5 nM
same,Kd,HLA-B*35:01; [7],5.43 nM
same,Kd,HLA-B*51:01; [7],5380 nM
same,Kd,HLA-B*53:01; [7],8.61 nM
same,Kd,HLA-B*54:01; [7],297 nM
KLADMSIYC,Kd,HLA-A*01:01,≥ 20000 nM
same,Kd,HLA-A*02:01 [4],42.7 nM
same,Kd,HLA-A*03:01,4200 nM
same,Kd,HLA-A*11:01,≥ 20000 nM
same,Kd,HLA-A*26:01,≥ 20000 nM
same,Kd,HLA-A*31:01,≥ 20000 nM
same,Kd,HLA-A*69:01,≥ 20000 nM
same,Kd,HLA-B*07:02 [5],≥ 20000 nM
same,Kd,HLA-B*08:01,≥ 20000 nM
same,Kd,HLA-B*15:01,4000 nM
same,Kd,HLA-B*27:05,≥ 20000 nM
same,Kd,HLA-B*40:01,≥ 20000 nM
same,Kd,HLA-B*44:02,≥ 20000 nM
same,Kd,HLA-B*58:01,≥ 20000 nM
KMTLFKSIL,Kd,HLA-A*02:01 [2]; [7],1280 nM
KPKFCLIDGM,Kd,HLA-B*07:02 [3]; [7],80.2 nM
same,Kd,HLA-B*35:01; [7],≥ 22400 nM
same,Kd,HLA-B*51:01; [7],≥ 69600 nM
same,Kd,HLA-B*53:01; [7],11900 nM
same,Kd,HLA-B*54:01; [7],14500 nM
LLMDCSGSI,Kd,HLA-A*02:01 [2]; source organism: Plasmodium falciparum,1.3 nM
LLNATDIAVA,Kd,HLA-A*02:01 [1]; source organism: Human immunodeficiency virus 1,427 nM
LPESDLDKV,Kd,HLA-B*07:02 [3]; [7],7810 nM
same,Kd,HLA-B*35:01; [7],≥ 22600 nM
same,Kd,HLA-B*51:01; [7],6570 nM
same,Kd,HLA-B*53:01; [7],7280 nM
same,Kd,HLA-B*54:01; [7],2290 nM
LPETLETLLL,Kd,HLA-B*51:01; [10],11000 nM
same,Kd,HLA-B*53:01; [10],37.6 nM
LPLPWAAGA,Kd,HLA-B*51:01; source organism: Dengue virus 4 Philippines/H241/1956,1420 nM
LRWLVERRF,Kd,HLA-B*48:01; source organism: West Nile virus,≥ 20000 nM
MLMPRQKI,Kd,HLA-A*02:01 [2]; source organism: Influenza A virus (A/turkey/Wisconsin/1968(H5N9)),1530 nM
MLWTTDKHV,Kd,HLA-A*02:01 [2]; source organism: Human alphaherpesvirus 1 strain 17,1290 nM
MPDCGMSVLA,Kd,HLA-B*07:02 [3]; [11],3880 nM
same,Kd,HLA-B*35:01; [11],92.2 nM
same,Kd,HLA-B*51:01; [11],9180 nM
same,Kd,HLA-B*53:01; [11],442 nM
same,Kd,HLA-B*54:01; [11],105 nM
NAWKVSCTI,Kd,HLA-B*51:01; [10],55.3 nM
same,Kd,HLA-B*53:01; [10],36 nM
NMETLNMTM,Kd,HLA-A*02:01 [1]; [6],1390 nM
NPDNTIAVI,Kd,HLA-B*07:02 [3]; [7],233 nM
same,Kd,HLA-B*35:01; [7],2.65 nM
same,Kd,HLA-B*51:01; [7],1730 nM
same,Kd,HLA-B*53:01; [7],1.42 nM
same,Kd,HLA-B*54:01; [7],2210 nM
NPTSETMYL,Kd,HLA-B*07:02 [3]; [7],116 nM
same,Kd,HLA-B*35:01; [7],59.2 nM
same,Kd,HLA-B*51:01; [7],≥ 60700 nM
same,Kd,HLA-B*53:01; [7],4.2 nM
same,Kd,HLA-B*54:01; [7],≥ 37500 nM
